Experimental data published in publication PMC4072508, “Genome-Wide Prediction and Validation of Peptides That Bind Human Prosurvival Bcl-2 Proteins” (PLoS Computational Biology, 2014).

T1: Bcl-w, Q92843
T1 chain: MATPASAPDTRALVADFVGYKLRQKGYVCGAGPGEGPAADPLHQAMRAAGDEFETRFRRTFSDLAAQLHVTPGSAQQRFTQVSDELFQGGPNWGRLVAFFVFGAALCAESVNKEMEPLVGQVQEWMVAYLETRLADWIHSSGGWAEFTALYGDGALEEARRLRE

T2: Mcl-1, Q07820
T2 chain: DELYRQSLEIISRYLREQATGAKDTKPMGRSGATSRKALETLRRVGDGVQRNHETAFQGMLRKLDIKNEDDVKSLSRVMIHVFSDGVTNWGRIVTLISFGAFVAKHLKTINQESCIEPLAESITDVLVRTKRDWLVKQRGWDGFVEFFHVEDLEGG

T3: Bfl-1, Q16548
T3 chain: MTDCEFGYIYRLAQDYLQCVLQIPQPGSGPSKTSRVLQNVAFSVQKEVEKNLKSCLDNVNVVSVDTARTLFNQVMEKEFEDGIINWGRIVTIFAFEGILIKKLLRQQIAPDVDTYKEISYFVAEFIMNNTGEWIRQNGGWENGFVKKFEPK


Assays:
Assay in all cases: peptide SPOT array, c-Myc-tagged receptor at 1 uM or 100 nM, anti-c-Myc-Cy3
Bcl-w, Q92843 = target: T1, Bcl-w, Q92843
Mcl-1, Q07820 = target: T2, Mcl-1, Q07820
Bfl-1, Q16548 = target: T3, Bfl-1, Q16548
Bcl-xL, Q07817 = target: Bcl-xL, Q07817
Bcl-2, P10415 = target: Bcl-2, P10415
Sequence of Bcl-2, P10415 (P10415 1-217): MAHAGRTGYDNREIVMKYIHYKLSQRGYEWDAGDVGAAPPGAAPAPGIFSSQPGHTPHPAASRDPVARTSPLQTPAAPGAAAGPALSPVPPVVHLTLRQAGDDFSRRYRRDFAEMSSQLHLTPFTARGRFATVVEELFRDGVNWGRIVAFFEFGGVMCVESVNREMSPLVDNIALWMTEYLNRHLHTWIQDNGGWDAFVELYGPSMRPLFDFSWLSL

Sequence of Bcl-xL, Q07817 (Q07817 1-209): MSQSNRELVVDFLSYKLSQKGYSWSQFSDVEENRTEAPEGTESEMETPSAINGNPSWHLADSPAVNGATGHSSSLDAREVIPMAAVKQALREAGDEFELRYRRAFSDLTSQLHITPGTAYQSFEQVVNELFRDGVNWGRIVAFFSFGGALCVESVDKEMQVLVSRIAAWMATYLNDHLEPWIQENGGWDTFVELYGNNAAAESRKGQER

Binder	SPOT signal as a fraction of Bim BH3's signal on the same receptor and array (Bcl-w, Q92843)	SPOT signal as a fraction of Bim BH3's signal on the same receptor and array (Mcl-1, Q07820)	SPOT signal as a fraction of Bim BH3's signal on the same receptor and array (Bfl-1, Q16548)	SPOT signal as a fraction of Bim BH3's signal on the same receptor and array (Bcl-xL, Q07817)	SPOT signal as a fraction of Bim BH3's signal on the same receptor and array (Bcl-2, P10415)
FVGCEFLHHLLREWGEELQAVLRSSQ [GEMIN4]	0.02	0.04	0.02	0.04	0.01
RTNNYQLSDELRKNGVELTSLRQKVA [GRIPAP1]	0.51	0.19	0.48	0.39	0.14
EQKLKQHVENLNQVAEKLEEKHSQIT [CCDC68]	0.02	0.02	0.01	0.03	0.01
TSQTEGLSRLLRQHAEDLNSGPLSKL [FES]	0.09	0.02	0.05	0.05	0.01
FDHMVPLVEEINRLADELNPLNASQE [C7orf26]	0.02	0.02	0.01	0.02	0.01
GMTSEQVAQVLRNCGNSVRMLVARDP [INADL]	0.06	0.07	0.15	0.18	0.04
ASGNKEMIEALKQYAMDYSNKALEKG [IFIT3]	0.04	0.03	0.04	0.06	0.01
EKNLPKMAEALAHGADVNWANSEENK [ACAP2]	0.01	0.02	0.01	0.02	0.01
LGHTGLACLFLKRGADLGARDSEGRD [ACAP1]	0.1	0.045	0.21	0.14	0.03
RAIPIKQGILLKRSGKSLNKEWKKKY [AGAP3]	0.64	0.35	0.52	1.42	0.19
CQGDTVISECLQRFADSLQEVVNYHM [ACAP3]	0.02	0.02	0.11	0.02	0.01
PRPLSILGNLLLLCSQDMLTSLTKLS [CYP2F1]	0.11	0.08	0.33	0.2	0.03

The remaining lines, values ahead:

SPOT signal as a fraction of Bim BH3's signal on the same receptor and array (Bcl-w, Q92843)	SPOT signal as a fraction of Bim BH3's signal on the same receptor and array (Mcl-1, Q07820)	SPOT signal as a fraction of Bim BH3's signal on the same receptor and array (Bfl-1, Q16548)	SPOT signal as a fraction of Bim BH3's signal on the same receptor and array (Bcl-xL, Q07817)	SPOT signal as a fraction of Bim BH3's signal on the same receptor and array (Bcl-2, P10415)	Binder
0.15	0.03	0.08	0.12	0.03	KRALIQCAKDIAKASDEVTRLAKEVA [VCL]
0.03	0.04	0.09	0.05	0.02	DIDEGLYSRQLYVLGHEAMKRLQTSS [UBA1]
0.03	0.04	0.04	0.06	0.02	TCLNRGFSRLLDNMAEFFRPTEQDLQ [PEX3]
0.01	0.02	0.02	0.02	0.01	KCRHEEVVQVLRNAGEEVTLTVSFLK [SNTG1]
0.02	0.03	0.01	0.03	0.01	ASEANLFEEALEKYGKDFTDIQQDFL [MTA1]
0.08	0.05	0.13	0.19	0.03	YNLKSPAVKRLMKEAAELKDPTDHYH [UBE2J1]
0.07	0.06	0.11	0.19	0.05	CLKRCRSAQVLHLYGATYSADGEDRA [NLRP12]
0.02	0.03	0.04	0.04	0.01	PVGYLVESGRLSVMGCDVLKAVSDYF [MFI2]
0.02	0.02	0.02	0.03	0.01	FQQTISCPEGLRLVGSEVGDRTLPGW [IRF3]
0.02	0.02	0.01	0.02	0.01	DSLAKFAGRKLKDCGEDLLVEISEVL [PCM1]
